Measured values: the supplement of paper PMC9233669
Variants at the floor of the assay were thinned out.

Experiments:
[1] = tested on: biotinyl-Leu-oxazolone; test: self-aminoacylation, catalytic enhancement (BLO) (fold over background); higher = more active; k-Seq, kA / k0A0; sequences stand for … in GGGAAUGGAUCCACAUCUACGAAUUC…UUCACUGCAGACUUGACGAAGCUG
Outline: (§1)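 Mutagenized RNA pools (0.43 μM; 21-nt variable region) were treated with 2–1250 μM of each biotinyl-aminoacyl-oxazolone. Conditions were 50 μL HEPES/NaCl/KCl/MgCl2/CaCl2 buffer, 5% acetonitrile, pH 6.9–7.0, room temperature, 90 minutes. Catalytic enhancement, the median kA relative to the uncatalyzed rate, was derived from streptavidin capture, qPCR and Illumina sequencing.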

[2] = tested on: biotinyl-Ile-oxazolone; test: self-aminoacylation, catalytic enhancement (BIO) (fold over background); higher = more active; k-Seq, kA / k0A0; sequences stand for … in GGGAAUGGAUCCACAUCUACGAAUUC…UUCACUGCAGACUUGACGAAGCUG
Outline: as §1

[3] = tested on: biotinyl-Met-oxazolone; test: self-aminoacylation, catalytic enhancement (BMO) (fold over background); higher = more active; k-Seq, kA / k0A0; sequences stand for … in GGGAAUGGAUCCACAUCUACGAAUUC…UUCACUGCAGACUUGACGAAGCUG
Outline: as §1

[4] = tested on: biotinyl-Val-oxazolone; test: self-aminoacylation, catalytic enhancement (BVO) (fold over background); higher = more active; k-Seq, kA / k0A0; sequences stand for … in GGGAAUGGAUCCACAUCUACGAAUUC…UUCACUGCAGACUUGACGAAGCUG
Outline: as §1

[5] = tested on: biotinyl-Phe-oxazolone; test: self-aminoacylation, catalytic enhancement (BFO) (fold over background); higher = more active; k-Seq, kA / k0A0; sequences stand for … in GGGAAUGGAUCCACAUCUACGAAUUC…UUCACUGCAGACUUGACGAAGCUG
Outline: as §1

[6] = tested on: biotinyl-Trp-oxazolone; test: self-aminoacylation, catalytic enhancement (BWO) (fold over background); higher = more active; k-Seq, kA / k0A0; sequences stand for … in GGGAAUGGAUCCACAUCUACGAAUUC…UUCACUGCAGACUUGACGAAGCUG
Outline: as §1

Row | Sequence | self-aminoacylation [1] | self-aminoacylation [2] | self-aminoacylation [3] | self-aminoacylation [4] | self-aminoacylation [5] | self-aminoacylation [6]
1 | AAGUUUGCUCAUAGUAGCAAG [Fam3.1 aminoacylation ribozyme variant] | 0.817 | 0.928 | 0.727 | 1.09 | 1.58 | 0.786
2 | AAGUUUGCUAAUCGUCGGAAG [Fam3.1 aminoacylation ribozyme variant] | 0.799 | 0.972 | 0.704 | 0.869 | 1.64 | 1.42
3 | AUUUACCUGGUCAUCGAGUGA [Fam2.1 aminoacylation ribozyme variant] | 7.77 | 4 | 7.97 | 4.29 | 8.89 | 8.91
4 | AAGUUUGCUAAUAGUCCCAAC [Fam3.1 aminoacylation ribozyme variant] | 0.585 | 0.639 | 0.505 | 0.643 | 1.04 | 0.629
5 | AUUGACCUAGGUCAUCGUGUG [Fam2.2 aminoacylation ribozyme variant] | 1.36 | 1.36 | 1.04 | 1.18 | 4.26 | 1.35
6 | AUUCACGUAGGUCAUCGGGGG [Fam2.2 aminoacylation ribozyme variant] | 2.4 | 2.24 | 2.66 | 2.09 | 1.73 | 2.53
7 | AUGACCCUGGUCAUCGAGUGU [Fam2.1 aminoacylation ribozyme variant] | 85.3 | 20.6 | 89.5 | 23.7 | 692 | 64.9
8 | CUACUUCAAACCAUCGGUGUG [Fam1A.1 aminoacylation ribozyme variant] | 1.52 | 1.08 | 1.11 | 1.1 | 1.24 | 0.938
9 | CUACAUCGAACAAUCGGUCUG [Fam1A.1 aminoacylation ribozyme variant] | 0.946 | 0.909 | 0.922 | 0.942 | 1.04 | 1.17
10 | AUUCCCCUGGUCUUCGAGUGA [Fam2.1 aminoacylation ribozyme variant] | 9.91 | 5.69 | 9.43 | 5.87 | 64.6 | 11.8
11 | AUCCACCUAGGGCAUCGGGUG [Fam2.2 aminoacylation ribozyme variant] | 5.15 | 3.45 | 4.46 | 4.02 | 22.1 | 4.35
12 | AUUACCCUGGUCAUCGAGUAA [Fam2.1 aminoacylation ribozyme variant] | 26.7 | 8.7 | 28.9 | 10.1 | 118 | 25.3
13 | AACGUUGCUAAUAGUCGCAAG [Fam3.1 aminoacylation ribozyme variant] | 1.66 | 1.64 | 1.81 | 1.68 | 2.3 | 1.97
